Literature values as cited in article PMC3221918.

Biological target: IL-15RαSu soluble ECD (Homo sapiens) (UniProt Q13261)
Chain of UniProt Q13261 (Q13261 31-95): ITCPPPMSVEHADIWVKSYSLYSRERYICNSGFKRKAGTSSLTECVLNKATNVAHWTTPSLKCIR

Substance: IL-15 (from UniProt P40933)
- Kd: 0.1 nM
